Reference: patent US9327008B2, “Cell-permeant peptide-based inhibitor of kinases” (Purdue Research Foundation, priority 2008, dated 2016)

How the values were obtained:
Type in all cases: biochemical
[1] = biological target: T1, CHK1 (Homo sapiens, UniProt O14757); assay: Millipore radiometric kinase activity assay, CHK1 (h)
T1 construct: purchased Millipore (assay service)
T1 sequence (O14757 1-476): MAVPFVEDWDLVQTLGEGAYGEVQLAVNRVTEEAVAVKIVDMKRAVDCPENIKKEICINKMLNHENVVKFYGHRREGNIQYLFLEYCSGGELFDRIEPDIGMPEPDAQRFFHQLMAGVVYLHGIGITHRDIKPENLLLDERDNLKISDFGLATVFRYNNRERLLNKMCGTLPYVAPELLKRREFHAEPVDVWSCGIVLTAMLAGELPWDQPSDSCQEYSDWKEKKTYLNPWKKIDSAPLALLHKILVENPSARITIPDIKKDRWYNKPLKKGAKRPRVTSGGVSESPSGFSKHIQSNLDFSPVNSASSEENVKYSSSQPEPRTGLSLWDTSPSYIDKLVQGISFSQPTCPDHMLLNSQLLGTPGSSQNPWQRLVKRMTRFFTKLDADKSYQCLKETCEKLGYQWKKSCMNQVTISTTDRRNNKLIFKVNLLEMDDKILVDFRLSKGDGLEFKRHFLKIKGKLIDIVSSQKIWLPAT
Description: (§1) A commercial radiometric assay service (Millipore, Billerica, Mass.) was used to test the specificity and potency of peptides containing a coupled transduction domain and therapeutic domain, hereinafter “complete peptides”). In these assays, if the kinase is not inhibited by an inhibitor peptide, a positively charged substrate is phosphorylated with a radiolabeled phosphate group from an ATP.
(§2) In a final reaction volume of 25 μL, CHK1 (h) (5-10 mU) is incubated with 8 mM MOPS pH 7.0, 0.2 mM EDTA, 200 μM […] [SEQ ID NO: 53], 10 mM MgAcetate and [γ-^33P-ATP] (specific activity approx. 500 cpm/pmol, concentration as required). The reaction is initiated by the addition of the MgATP mix. After incubation for 40 minutes at room temperature, the reaction is stopped by the addition of 5 μL of a 3% phosphoric acid solution. 10 μL of the reaction is then spotted onto a P30 filtermat and washed three times for 5 minutes in 75 mM phosphoric acid and once in methanol prior to drying and scintillation counting.
(§3) IC50 values for inhibitor peptides were determined using Millipore's IC50Profiler Express service. The IC50 value was estimated from a 10-point curve of one-half log dilutions. For peptides tested for specificity, the concentration of the peptides that inhibited approximately 95% of MK2 activity was chosen to profile against a battery of kinases related to MK2, cell viability, or human disease from MilliporeKinaseProfiler service. In both assays, compounds were supplied in dimethylsulfoxide (DMSO). Every kinase activity measurement was conducted in duplicate.
(§4) Therapeutic inhibitor peptides were assayed for activity against human kinases related to MK2, cell viability, or human disease. The assays were performed using concentrations of therapeutic inhibitor peptides that yielded 2% to 8% of normal MK2 activity. Error is reported as the standard deviation between 2 samples, and “c” is rat AMPK whereas all other kinases used are human kinases.

[2] = biological target: T2, CK1δ (Homo sapiens, UniProt P48730); assay: Millipore radiometric kinase activity assay, CK1δ (h)
T2 construct: purchased Millipore (assay service)
Description: as §1
In a final reaction volume of 25 μL, CK1δ (h) (5-10 mU) is incubated with 8 mM MOPS pH 7.0, 0.2 mM EDTA, 200 μM KRRRALS(p)VASLPGL [SEQ ID NO: 54], 10 mM MgAcetate and [γ-^33P-ATP] (specific activity approx. 500 cpm/pmol, concentration as required). The reaction is initiated by the addition of the MgATP mix. After incubation for 40 minutes at room temperature, the reaction is stopped by the addition of 5 μL of a 3% phosphoric acid solution. 10 μL of the reaction is then spotted onto a P30 filtermat and washed three times for 5 minutes in 75 mM phosphoric acid and once in methanol prior to drying and scintillation counting.
as §3, §4

[3] = biological target: T3, LIMK1 (Homo sapiens, UniProt P53667); assay: Millipore radiometric kinase activity assay, LIMK1 (h)
T3 construct: purchased Millipore (radiometric assay service)
Description: as §1
In a final reaction volume of 25 μL, LIMK1 (h) (5-10 mU) is incubated with 8 mM MOPS pH 7.0, 0.2 mM EDTA, 0.6 mg/mL cofilin, 10 mM MgAcetate and [γ-^33P-ATP] (specific activity approx. 500 cpm/pmol, concentration as required). The reaction is initiated by the addition of the MgATP mix. After incubation for 40 minutes at room temperature, the reaction is stopped by the addition of 5 μL of a 3% phosphoric acid solution. 10 μL of the reaction is then spotted onto a P30 filtermat and washed three times for 5 minutes in 75 mM phosphoric acid and once in methanol prior to drying and scintillation counting.
as §3, §4

[4] = biological target: T4, Pim-1 (Homo sapiens, UniProt P11309); assay: Millipore radiometric kinase activity assay, Pim-1 (h)
T4 construct: purchased Millipore (radiometric assay service)
Description: as §1
as §2, with “Pim-1” for “CHK1”, “100” for “200”, “59],” for “53],”
as §3, §4

[5] = biological target: T5, Rsk2 (Homo sapiens, UniProt P51812); assay: Millipore radiometric kinase activity assay, Rsk2 (h)
T5 construct: purchased Millipore (radiometric assay service)
Description: as §1
as §2, with “μL, Rsk2” for “μL, CHK1”, “EDTA, 30” for “EDTA, 200”, “NO: 64],” for “NO: 53],”, “μL it” for “μL”, “10 μL,” for “10 μL”
as §3, §4

T2 sequence (P48730 whole entry): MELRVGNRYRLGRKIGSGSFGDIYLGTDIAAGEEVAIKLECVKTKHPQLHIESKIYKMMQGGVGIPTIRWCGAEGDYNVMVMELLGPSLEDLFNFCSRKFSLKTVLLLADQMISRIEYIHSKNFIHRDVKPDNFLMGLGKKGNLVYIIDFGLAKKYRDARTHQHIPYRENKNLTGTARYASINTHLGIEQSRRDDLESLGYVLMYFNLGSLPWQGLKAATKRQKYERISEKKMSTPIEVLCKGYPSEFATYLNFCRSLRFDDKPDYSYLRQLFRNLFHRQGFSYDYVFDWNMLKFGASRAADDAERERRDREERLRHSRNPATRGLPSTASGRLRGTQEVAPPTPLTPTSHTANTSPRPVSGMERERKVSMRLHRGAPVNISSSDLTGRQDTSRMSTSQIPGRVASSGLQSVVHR
T3 sequence (P53667 whole entry): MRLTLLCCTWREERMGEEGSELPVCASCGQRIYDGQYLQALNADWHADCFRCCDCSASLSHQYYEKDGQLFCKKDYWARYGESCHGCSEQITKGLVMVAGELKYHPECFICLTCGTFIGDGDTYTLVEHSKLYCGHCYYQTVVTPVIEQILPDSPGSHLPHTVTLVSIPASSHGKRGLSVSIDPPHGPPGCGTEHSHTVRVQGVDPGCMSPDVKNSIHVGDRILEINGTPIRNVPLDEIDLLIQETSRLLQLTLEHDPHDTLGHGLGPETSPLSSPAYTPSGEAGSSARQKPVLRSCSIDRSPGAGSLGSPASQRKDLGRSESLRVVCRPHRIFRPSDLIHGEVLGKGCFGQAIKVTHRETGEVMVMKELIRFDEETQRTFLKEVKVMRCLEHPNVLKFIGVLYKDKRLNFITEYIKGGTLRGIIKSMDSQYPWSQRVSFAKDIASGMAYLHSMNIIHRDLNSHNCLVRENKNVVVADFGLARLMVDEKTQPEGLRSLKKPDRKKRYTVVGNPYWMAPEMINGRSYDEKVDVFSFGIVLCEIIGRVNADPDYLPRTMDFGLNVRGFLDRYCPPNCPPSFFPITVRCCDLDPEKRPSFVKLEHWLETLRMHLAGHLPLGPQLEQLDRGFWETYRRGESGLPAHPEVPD
T5 sequence (P51812 whole entry): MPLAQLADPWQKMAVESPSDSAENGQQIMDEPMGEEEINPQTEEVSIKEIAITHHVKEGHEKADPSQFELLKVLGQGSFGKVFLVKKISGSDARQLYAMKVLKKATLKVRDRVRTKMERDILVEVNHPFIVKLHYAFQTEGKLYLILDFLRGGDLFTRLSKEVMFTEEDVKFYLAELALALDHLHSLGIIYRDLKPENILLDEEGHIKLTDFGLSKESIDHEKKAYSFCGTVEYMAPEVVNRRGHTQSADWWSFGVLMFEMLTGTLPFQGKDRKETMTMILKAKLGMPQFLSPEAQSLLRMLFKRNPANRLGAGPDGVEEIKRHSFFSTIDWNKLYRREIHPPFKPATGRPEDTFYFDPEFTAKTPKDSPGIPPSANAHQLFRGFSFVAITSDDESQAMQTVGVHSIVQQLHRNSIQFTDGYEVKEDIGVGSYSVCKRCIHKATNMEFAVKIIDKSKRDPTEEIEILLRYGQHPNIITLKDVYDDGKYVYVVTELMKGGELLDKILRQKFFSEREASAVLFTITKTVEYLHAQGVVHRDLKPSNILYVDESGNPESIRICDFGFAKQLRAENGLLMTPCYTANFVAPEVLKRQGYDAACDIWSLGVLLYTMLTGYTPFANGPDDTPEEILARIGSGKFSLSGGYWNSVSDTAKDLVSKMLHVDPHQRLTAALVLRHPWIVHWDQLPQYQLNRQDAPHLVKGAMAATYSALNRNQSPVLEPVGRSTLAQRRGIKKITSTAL
T4 sequence (P11309 whole entry): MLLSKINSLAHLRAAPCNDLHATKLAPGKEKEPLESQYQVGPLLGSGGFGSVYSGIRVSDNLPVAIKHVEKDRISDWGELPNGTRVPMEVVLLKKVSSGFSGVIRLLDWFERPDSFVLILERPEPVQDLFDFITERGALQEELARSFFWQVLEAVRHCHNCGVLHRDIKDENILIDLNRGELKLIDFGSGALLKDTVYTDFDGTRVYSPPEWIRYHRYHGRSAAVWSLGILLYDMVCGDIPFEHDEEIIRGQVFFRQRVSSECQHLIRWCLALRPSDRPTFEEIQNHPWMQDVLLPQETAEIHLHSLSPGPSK

Sequence | CHK1 Kinase Activity (%) (+SD %) ([1]; peptide 30 μM) | CHK1 Kinase Activity (%) (+SD %) ([1]; peptide 100 μM) | CK1δ Kinase Activity (%) (+SD %) ([2]; peptide 30 μM) | CK1δ Kinase Activity (%) (+SD %) ([2]; peptide 100 μM) | LIMK1 Kinase Activity (%) (+SD %) ([3]; peptide 30 μM) | LIMK1 Kinase Activity (%) (+SD %) ([3]; peptide 100 μM) | Pim-1 Kinase Activity (%) (+SD %) ([4]; peptide 30 μM) | Pim-1 Kinase Activity (%) (+SD %) ([4]; peptide 100 μM) | Rsk2 Kinase Activity (%) (+SD %) ([5]; peptide 30 μM) | Rsk2 Kinase Activity (%) (+SD %) ([5]; peptide 100 μM)
WLRRIKAWLRRIKALNRQLGVAA | 31 (5) % | 54 (6) % | 52 (1) % | 99 (3) % | 89 (3) % | 92 (2) % | 5 (1) % | 1 (0) % | 14 (5) % | −1 (1) %
KAFAKLAARLYRKALARQLGVAA |  | 68 (0) % |  | 97 (2) % |  | 93 (3) % |  | 1 (2) % |  | 6 (1) %
